{"source": "patent US20020028202A1", "about": "(Biogen, published 2002)", "binders": {"B1": {"name": "CP.B8 monoclonal antibody (murine anti-human gc chain, hybridoma ATCC HB-12107) (antibody, V domains shown)", "VH": "LQESGPGLVAPSQSLSITCTVSGFSLTSYGVHWVRQPPGKGLEWLGVIWAGGSTNYNSALMSRLNINRDNSKSQIFLKMNSLQTDDTAIYYCAREGSTVDSMDYWGQGTTVT", "VL": "DIVMTQSHKFMSTSVGDSITITCKASQDVTTAVAWYQQKPGQSPKLLIYWASTRHTGVPDRFTGSGSGTDYTLTISSVQAEDLALYYCQQHYITPWTFGGGTKLEI", "notes": "Used unconjugated and biotin-conjugated; also called CP.B8 mAb; mAb CP.B8"}}, "assay_in_all_cases": "staining of transfected COS-7 cells, FACS", "key": {"[1]": {"target": "T1, human gc chain mutant, IHL replaced by Ala (Domain 1 Loop EF), myc-tagged, on COS-7 cells (human, UniProt P31785 23-369)", "T1 construct": "whole, on cells; not shown: 9 amino acid myc tag at the 5' end of the construct", "T1 sequence (looked up)": "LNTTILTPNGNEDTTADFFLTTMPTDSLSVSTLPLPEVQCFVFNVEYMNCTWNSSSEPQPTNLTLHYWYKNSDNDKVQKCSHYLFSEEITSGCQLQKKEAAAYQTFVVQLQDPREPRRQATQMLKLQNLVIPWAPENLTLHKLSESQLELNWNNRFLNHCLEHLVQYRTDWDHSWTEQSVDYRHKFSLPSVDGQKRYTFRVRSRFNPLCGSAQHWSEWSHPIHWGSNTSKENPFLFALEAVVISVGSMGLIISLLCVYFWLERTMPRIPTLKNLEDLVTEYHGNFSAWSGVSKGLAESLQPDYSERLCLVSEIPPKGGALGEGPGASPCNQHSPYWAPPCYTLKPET"}, "[2]": {"target": "T2, human gc chain mutant, RFL replaced by Ala (Domain 2 Loop BC), myc-tagged, on COS-7 cells (human, UniProt P31785 23-369)", "T2 construct": "whole, on cells; not shown: 9 amino acid myc tag at the 5' end of the construct", "T2 sequence (looked up)": "T1 sequence (looked up) with A100I, A101H, A102L, R155A, F156A, L157A"}, "[3]": {"target": "T3, human gc chain mutant, HCL replaced by Ala (Domain 2 Loop BC), myc-tagged, on COS-7 cells (human, UniProt P31785 23-369)", "T3 construct": "whole, on cells; not shown: 9 amino acid myc tag at the 5' end of the construct", "T3 sequence (looked up)": "T1 sequence (looked up) with A100I, A101H, A102L, H159A, C160A, L161A"}, "[4]": {"target": "T4, human gc chain mutant, FNP replaced by Ala (Domain 2 Loop FQ), myc-tagged, on COS-7 cells (human, UniProt P31785 23-369)", "T4 construct": "whole, on cells; not shown: 9 amino acid myc tag at the 5' end of the construct", "T4 sequence (looked up)": "T1 sequence (looked up) with A100I, A101H, A102L, F205A, N206A, P207A"}}, "note": "Residue numbers refer to the chain shown, from its start."}
{"binder": "B1", "values": [{"measurement": "% binding to mutant gc chain/wildtype gc chain", "setting": "[1]", "result": 0, "unit": "%"}, {"measurement": "% binding to mutant gc chain/wildtype gc chain", "setting": "[2]", "result": 89, "unit": "%"}, {"measurement": "% binding to mutant gc chain/wildtype gc chain", "setting": "[3]", "result": 8, "unit": "%"}, {"measurement": "% binding to mutant gc chain/wildtype gc chain", "setting": "[4]", "result": 28, "unit": "%"}]}
